Assay results as given in patent CN116178540A (SANYOU BIO INC, dated 2023).
Numbering of substitutions follows the chain as printed.

T1: hANG2-His (human, UniProt O15123)
T1 chain: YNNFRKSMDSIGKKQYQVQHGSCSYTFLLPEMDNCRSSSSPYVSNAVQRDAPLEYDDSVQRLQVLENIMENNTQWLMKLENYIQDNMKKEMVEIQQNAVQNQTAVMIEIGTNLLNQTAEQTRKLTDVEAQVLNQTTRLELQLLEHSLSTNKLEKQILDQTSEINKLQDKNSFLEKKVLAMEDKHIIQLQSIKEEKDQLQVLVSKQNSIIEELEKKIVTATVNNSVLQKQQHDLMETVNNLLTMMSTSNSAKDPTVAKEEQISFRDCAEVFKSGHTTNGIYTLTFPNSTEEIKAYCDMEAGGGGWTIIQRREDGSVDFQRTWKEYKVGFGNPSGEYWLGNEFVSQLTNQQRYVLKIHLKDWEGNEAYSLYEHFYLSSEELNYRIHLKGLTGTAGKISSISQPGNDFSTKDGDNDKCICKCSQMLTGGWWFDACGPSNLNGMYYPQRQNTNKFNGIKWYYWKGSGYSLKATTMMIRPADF

T2: hANG2-Fc (human, UniProt O15123)
T2 chain: T1 chain

T3: hANG1-Fc (human, UniProt Q15389)
T3 chain: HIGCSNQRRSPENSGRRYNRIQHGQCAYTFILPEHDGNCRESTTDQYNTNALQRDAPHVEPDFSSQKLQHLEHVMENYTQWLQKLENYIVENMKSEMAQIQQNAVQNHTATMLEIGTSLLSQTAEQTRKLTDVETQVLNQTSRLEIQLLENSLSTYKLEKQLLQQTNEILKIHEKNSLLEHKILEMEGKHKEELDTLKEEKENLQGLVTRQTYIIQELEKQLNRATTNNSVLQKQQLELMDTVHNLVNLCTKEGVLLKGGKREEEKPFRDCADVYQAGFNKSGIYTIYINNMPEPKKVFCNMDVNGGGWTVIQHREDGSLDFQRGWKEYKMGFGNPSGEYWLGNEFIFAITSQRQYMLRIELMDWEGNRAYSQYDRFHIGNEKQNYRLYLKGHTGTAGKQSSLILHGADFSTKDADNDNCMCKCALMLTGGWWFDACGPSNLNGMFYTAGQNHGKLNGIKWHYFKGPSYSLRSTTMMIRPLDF

T4: hANG2-His (human, UniProt O15123 19-496, limits assumed)
T4 construct: also called 人源ANG2; ANGPT2; not shown: C-terminal His tag
T4 sequence (looked up): T1 chain

B1: nesvacumab (antibody, V domains shown)
VH: EVQLVESGGGLVQPGGSLRLSCAASGFTFSSYDIHWVRQATGKGLEWVSAIGPAGDTYYPGSVKGRFTISRENAKNSLYLQMNSLRAGDTAVYYCARGLITFGGLIAPFDYWGQGTLVTVSS
VL: EIVLTQSPGTLSLSPGERATLSCRASQSVSSTYLAWYQQKPGQAPRLLIYGASSRATGIPDRFSGSGSGTDFTLTISRLEPEDFAVYYCQHYDNSQTFGQGTKVEIK
B2: 17 (antibody, V domains shown)
VH: EVQLVESGGGVVKPGGSLRLSCAASGFTFNKYTINWVRQTPGKGLELVADISSGGDYVNYADSVKGRFTISRDNAKDSVYLLMNGLRAEDTAVYYCARDALTYSNNWLDSWGQGTLVTVSS
VL: DIQLTQSPSFLSASVGDRVTITCRASQGISSYLAWYQQKPGKAPKLLIYAASTLQSGVPSRFSGGGYGTDFTLTISSLQPEDFATYYCQQFESYPLTFGGGTRLEIK
B3: 抗体78A74-25 (antibody, IgG1, V domains shown)
VH: QVQLVESGGGLVKPGGSLRLSCAASGFTFSSYSMNWVRQAPGKGLEWVAVISYDGSNKYYADSVKGRFTISRDNSKNTLYLQMNSLRAEDTAVYYCAKATLDGYTAGYYYGMDVWGQGTTVTVSS
VL: EIVLTQSPATLSLSPGERATLSCRASQSVSSYLAWYQQKPGQAPRLLIYDASNRATGIPARFSGSGSGTDFTLTISSLEPEDFAVYYCQQRSNWPPELYFGQGTKVEIK
B4: 抗体78A74-21 (antibody, IgG1, V domains shown)
VH: B3 VH with A99E
VL: B3 VL with S30G, W94G, L98W, Y99T
B5: 抗体78A74-7 (antibody, IgG1, V domains shown)
VH: B3 VH
VL: B3 VL with Q90L, R91M, L98W, Y99T
B6: 抗体78A74-35 (antibody, IgG1, V domains shown)
VH: B3 VH
VL: B3 VL with E97A, L98M, Y99T
B7: 抗体78A74-36 (antibody, IgG1, V domains shown)
VH: B3 VH
VL: B3 VL with S92T, N93M, L98W, Y99T

Target: T1, hANG2-His
Test: ELISA

EC50 [µg/mL] | Binder
0.442 | B1
0.12 | B2

Target: T2, hANG2-Fc
Test: competition ELISA (TIE2 blocking)

IC50 [µg/mL] | Binder
1.58 | B1
0.547 | B2

Target: T1, hANG2-His
Test: BLI

Kd [pM] | Binder
1170 | B1

Target: T2, hANG2-Fc
Test: FACS competition (TIE2-HEK293)

IC50 [µg/mL] | Binder
0.362 | B1
0.323 | B2

Target: T3, hANG1-Fc
Test: ELISA

binding result | Binder
no binding | B1
no binding | B2

Target: T4, hANG2-His
Test: BLI (Gator), antibody captured on sensor, hANG2-His 100/50/25 nM

fold affinity against nesvacumab [fold] | Binder
~2 | B3
~2 | B4
~2 | B5

Target: T4, hANG2-His
Test: as above
Remark: another data set of the same source

Kd [pM] | koff [s⁻¹] | kon [M⁻¹ s⁻¹] | Binder
828 | 0.000161 | 194000 | B3
687 | 0.000132 | 192000 | B4
1520 | 0.000284 | 187000 | B6
544 | 0.000103 | 189000 | B5
1320 | 0.000263 | 200000 | B7
